We go through three molecules from patent US20250361296A1 (BIOCYTOGEN PHARMACEUTICALS BEIJING, published 2025).

The chains are these.
T1: human SIGLEC16 on CHO-S-hSIGLEC16 cells (human, UniProt A6NMB1 17-434)
T1 chain: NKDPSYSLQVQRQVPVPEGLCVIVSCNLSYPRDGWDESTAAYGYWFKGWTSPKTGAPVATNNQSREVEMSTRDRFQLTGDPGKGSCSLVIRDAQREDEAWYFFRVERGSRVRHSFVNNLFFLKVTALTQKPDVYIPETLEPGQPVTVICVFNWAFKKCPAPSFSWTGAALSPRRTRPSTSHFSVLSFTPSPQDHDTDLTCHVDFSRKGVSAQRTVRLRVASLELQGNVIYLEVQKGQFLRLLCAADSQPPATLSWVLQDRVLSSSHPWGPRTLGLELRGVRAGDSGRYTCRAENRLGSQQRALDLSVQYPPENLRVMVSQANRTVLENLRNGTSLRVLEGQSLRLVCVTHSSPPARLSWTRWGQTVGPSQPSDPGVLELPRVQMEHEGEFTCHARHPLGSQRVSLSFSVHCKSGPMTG

T2: human SIGLEC10 on CHO-S-hSIGLEC10 cells (human, UniProt Q96LC7 17-550)
T2 sequence: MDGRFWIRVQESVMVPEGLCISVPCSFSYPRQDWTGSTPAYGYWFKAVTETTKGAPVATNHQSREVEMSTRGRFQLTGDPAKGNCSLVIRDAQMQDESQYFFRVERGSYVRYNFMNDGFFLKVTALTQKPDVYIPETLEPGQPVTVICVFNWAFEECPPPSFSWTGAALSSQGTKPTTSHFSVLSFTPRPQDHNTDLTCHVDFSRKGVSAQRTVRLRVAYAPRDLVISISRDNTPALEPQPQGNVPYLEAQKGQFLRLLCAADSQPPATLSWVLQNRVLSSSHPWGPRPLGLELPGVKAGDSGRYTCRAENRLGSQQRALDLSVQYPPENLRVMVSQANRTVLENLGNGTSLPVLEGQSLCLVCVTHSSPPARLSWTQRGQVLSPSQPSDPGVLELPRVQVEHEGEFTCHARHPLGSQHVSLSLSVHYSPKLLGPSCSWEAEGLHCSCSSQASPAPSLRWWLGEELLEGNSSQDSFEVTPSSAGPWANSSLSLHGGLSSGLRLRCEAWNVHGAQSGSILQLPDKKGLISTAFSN

T3: human SIGLEC4 on CHO-S-hSIGLEC4 cells (human, UniProt P20916 20-516)
T3 sequence: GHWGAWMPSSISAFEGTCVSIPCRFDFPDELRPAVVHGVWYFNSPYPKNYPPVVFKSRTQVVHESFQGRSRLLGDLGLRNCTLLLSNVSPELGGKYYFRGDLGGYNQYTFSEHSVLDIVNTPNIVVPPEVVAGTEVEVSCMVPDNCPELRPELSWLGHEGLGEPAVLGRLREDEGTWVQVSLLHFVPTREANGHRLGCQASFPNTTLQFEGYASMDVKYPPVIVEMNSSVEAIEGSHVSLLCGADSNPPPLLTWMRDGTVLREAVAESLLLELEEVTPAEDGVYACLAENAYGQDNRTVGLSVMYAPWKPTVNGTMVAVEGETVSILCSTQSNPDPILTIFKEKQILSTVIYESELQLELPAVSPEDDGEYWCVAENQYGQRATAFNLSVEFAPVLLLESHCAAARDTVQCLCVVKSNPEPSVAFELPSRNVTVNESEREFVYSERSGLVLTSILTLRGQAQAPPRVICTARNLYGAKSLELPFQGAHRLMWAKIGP

T4: human SIGLEC11 on CHO-S-hSIGLEC11 cells (human, UniProt Q96RL6 104-561)
T4 sequence: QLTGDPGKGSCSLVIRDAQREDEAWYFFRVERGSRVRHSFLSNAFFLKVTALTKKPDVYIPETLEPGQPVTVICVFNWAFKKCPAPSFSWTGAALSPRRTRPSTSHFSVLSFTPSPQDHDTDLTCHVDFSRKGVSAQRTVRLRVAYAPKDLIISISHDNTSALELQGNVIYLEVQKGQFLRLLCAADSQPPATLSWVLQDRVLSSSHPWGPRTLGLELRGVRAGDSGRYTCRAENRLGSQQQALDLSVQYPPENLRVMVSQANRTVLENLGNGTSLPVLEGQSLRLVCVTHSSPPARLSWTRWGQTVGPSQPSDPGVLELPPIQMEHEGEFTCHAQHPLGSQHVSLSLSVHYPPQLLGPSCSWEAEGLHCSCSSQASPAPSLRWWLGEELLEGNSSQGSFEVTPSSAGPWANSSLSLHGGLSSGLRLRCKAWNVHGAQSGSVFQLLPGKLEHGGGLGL

B1: anti-SIGLEC15 antibody 10A7 (antibody, human IgG1, V domains shown)
VH: EVQLVQSGGGLVQPGGSLRLSCAASGFTFSNYEMNWVRQAPGKGLEWISYISNSGSTIYYADSVKGRFTISRDDAKNSLYLQMNSLRAEDTAVYYCAREDYDSSGYYWFDPWGQGTPVTVSS
VL: DIQLTQSPSSVSASVGDRVTITCRASQGISSWLAWYQQKPGKAPKLLIYAASSLQSGVPSRFSGSGSGTDFTLTINSLQPEDFATYYCQQTNSFPLTFGGGTKVEIK
B2: anti-SIGLEC15 antibody 23F4 (antibody, human IgG1, V domains shown)
VH: QVQLQQWGAGLLKPSETLSLTCAVYGGSFSGYFWSWIRQPPGKGLEWIGEINHSGSTNYNPSLKSRVTLSVDTSKNQFSLKLSSVTAADTAVYYCAREGDSSSWGNWFDPWGQGTLVTVSS
VL: EIVLTQSPGTLSLSPGERATLSCRASQSVSSSYLAWYQQKPGQAPRFLIYGASSRATGIPDRFSGSGSGTDFTLTISRLEPEDFAVYYCQQFGNSPLTFGGGTKVEIK
B3: anti-SIGLEC15 antibody 10C9 (antibody, human IgG1, V domains shown)
VH: QVQLVQSGAEVKKPGATVKVSCKASGYTFTNYGFSWVRQAPGQGLEWMGWINTYNDNTNYAQKFQGRVTMTTDTSTSTAYMELRSLRSDDTAVYYCARDGLWFGELPHYFDYWGQGTLVTVSS
VL: DIQLTQSPLSSPVTLGQPASISCRSSQSLVNSDGETFLSWLQQRPGQPPRLLIYKISNRFSGVPDRFSGSGAGTDFTLKISRVEAEDVGVYYCMQATQFPHTFGQGTKLEIK

One experiment has as its target T1, human SIGLEC16 on CHO-S-hSIGLEC16 cells. Put plainly: flow cytometry, CHO-S cells expressing the target. For Percentage of Positive Cells: test concentration or dose not given here. The protocol: (§1) CHO-S-hSIGLEC15 cells, CHO-S-mSIGLEC15 cells, CHO-S-fasSIGLEC15 cells or CHO-S-dSIGLEC15 cells were transferred to a 96-well plate at a density of 5×10⁴ cells/well respectively. Serially diluted sample anti-SIGLEC15 antibodies were added to the 96-well plate, and incubated at 4° C. for 30 min. Then, the cells were incubated with the secondary antibody anti-hIgG-Fc-Alex Flour 647 (RL1-H) (Jackson ImmunoResearch Laboratories, Inc., 109-606-170) at 4° C. in the dark for 15 minutes before flow cytometry analysis.
(§2) Another similar experiment was performed to determine whether the anti-SIGLEC15 antibodies can bind with other SIGLEC family proteins. CHO-S-hSIGLEC1 cells (expressing hSIGLEC1, SEQ ID NO: 49)), CHO-S-hSIGLEC2 cells (expressing hSIGLEC2, SEQ ID NO: 50), CHO-S-hSIGLEC4 cells (expressing hSIGLEC4, SEQ ID NO: 51), CHO-S-hSIGLEC5 cells (expressing hSIGLEC5, SEQ ID NO: 52), CHO-S-hSIGLEC6 cells (expressing hSIGLEC6, SEQ ID NO: 53), CHO-S-hSIGLEC7 cells (expressing hSIGLEC7, SEQ ID NO: 54), CHO-S-hSIGLEC8 cells (expressing hSIGLEC8, SEQ ID NO: 55), CHO-S-hSIGLEC9 cells (expressing hSIGLEC9, SEQ ID NO: 56), CHO-S-hSIGLEC10 cells (expressing hSIGLEC10, SEQ ID NO: 57), CHO-S-hSIGLEC11 cells (expressing hSIGLEC11, SEQ ID NO: 58), CHO-S-hSIGLEC12 cells (expressing hSIGLEC12, SEQ ID NO: 59), CHO-S-hSIGLEC14 cells (expressing hSIGLEC14, SEQ ID NO: 60) or CHO-S-hSIGLEC16 cells (expressing hSIGLEC16, SEQ ID NO: 61) were used.
In general terms: Flow cytometry measures light scatter and fluorescence of single cells or particles in a stream.
For the molecule B1, the “Percentage of Positive Cells” value amounted to 0.2% and the binding result is “no binding”.

On to B2, for which the “Percentage of Positive Cells” value is 1.3% and the binding result was “no binding”.

Regarding B3, the “Percentage of Positive Cells” value was determined as 0.2% and the binding result is reported as “no binding”.

In the next experiment the target is T2, human SIGLEC10 on CHO-S-hSIGLEC10 cells. Put plainly: flow cytometry, CHO-S cells expressing the target. For Percentage of Positive Cells: test concentration or dose not given here. As for the experimental part: as §1, §2
B1: the “Percentage of Positive Cells” value turned out to be 1.4% and the binding result is reported as “no binding”.

For the molecule B2, the “Percentage of Positive Cells” value turned out to be 1.6% and the binding result is “no binding”.

For the molecule B3, the “Percentage of Positive Cells” value is 1.5% and the binding result is on record as “no binding”.

For a further experiment, the target named is T3, human SIGLEC4 on CHO-S-hSIGLEC4 cells. Put plainly: flow cytometry, CHO-S cells expressing the target. For Percentage of Positive Cells: test concentration or dose not given here. The protocol:
as §1, §2
For B1, the “Percentage of Positive Cells” value is 1.1% and the binding result was “no binding”.

For B2, the “Percentage of Positive Cells” value was 0.8% and the binding result was “no binding”.

For B3, the “Percentage of Positive Cells” value turned out to be 1.2% and the binding result is recorded as “no binding”.

The target in the next experiment is T4, human SIGLEC11 on CHO-S-hSIGLEC11 cells. Put plainly: flow cytometry, CHO-S cells expressing the target. For Percentage of Positive Cells: test concentration or dose not given here. The protocol: as §1, §2
For the molecule B1, the “Percentage of Positive Cells” value was 0.1% and the binding result is “no binding”.

In the case of B2, the “Percentage of Positive Cells” value was determined as 0.2% and the binding result is on record as “no binding”.

As to B3, the “Percentage of Positive Cells” value came to 0.1% and the binding result is listed as “no binding”.
